Laboratory results: PMC7891324

Biological target: microtubules assembled from highly purified (MAP-free) porcine brain tubulin (porcine) (UniProt P02550)
Assay: co-sedimentation; MTs assembled from 25 µM PC-purified (MAP-free) porcine brain tubulin in PEM (100 mM Pipes pH 6.8, 2 mM EGTA, 1 mM MgCl2) with 1 mM GTP, 10% glycerol, 1 mM DTT, 0.5% Triton X-100, 1 h 37°C; 2.5 µM recombinant plectin fragment added for 60 min; 45 000 g 30 min 37°C; supernatant and pellet by SDS-PAGE, Coomassie, densitometry

Q: “plectin fragment P2(2α3α)-8 (exons 2(2α3α)-8), untagged (domain or fragment)” was tested. Which percent co-sedimented with MTs did it give?
A: 36.5%

Q: With “plectin fragment P1c(2α3α)-8 (exons 1c(2α3α)-8), untagged (domain or fragment)” as the substance, how does the percent co-sedimented with MTs read?
A: 52%
